{"source": "patent US11207433B2", "about": "“Imaging agents and uses thereof” (Washington University, priority 2018, dated 2021)", "origin": "cited, not measured here", "target": "T1, NPR-C receptor (Homo sapiens, UniProt P17342)", "T1 sequence (P17342 27-541)": "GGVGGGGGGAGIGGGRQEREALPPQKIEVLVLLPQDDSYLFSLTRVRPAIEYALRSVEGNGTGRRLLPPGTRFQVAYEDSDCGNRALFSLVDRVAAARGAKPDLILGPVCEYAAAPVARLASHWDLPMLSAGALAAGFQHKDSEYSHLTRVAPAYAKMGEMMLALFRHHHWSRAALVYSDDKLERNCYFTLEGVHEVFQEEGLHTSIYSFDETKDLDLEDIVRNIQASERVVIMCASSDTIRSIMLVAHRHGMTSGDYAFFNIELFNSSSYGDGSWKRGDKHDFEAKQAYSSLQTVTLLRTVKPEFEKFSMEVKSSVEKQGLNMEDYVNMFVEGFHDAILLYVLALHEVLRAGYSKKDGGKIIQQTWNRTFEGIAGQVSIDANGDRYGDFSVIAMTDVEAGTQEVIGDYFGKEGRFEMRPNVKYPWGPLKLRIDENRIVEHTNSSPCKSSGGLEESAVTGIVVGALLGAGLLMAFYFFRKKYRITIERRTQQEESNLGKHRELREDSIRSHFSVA", "conditions": "in vivo", "note": "Bridges are numbered along the chain shown (N, C = ends). Where no end group is shown, it is not given here.", "data": [{"substance": "^64Cu-DOTA-CANF-Comb: CANF peptide functionalized polymeric nanoparticle, described in U.S. Patent Application Publication No. 2011/0300071 (RSSCFGGRIDRIGAC-NH2; disulfide 4-15; also: conjugated to polymeric nanoparticle, DOTA chelator, 64Cu label)", "values": [{"measurement": "delay from injection to optimal PET imaging time", "result": "~12", "unit": "h"}]}]}
